This passage reports Specific Activity (cAMP production in MC3T3-EI cells) (relative to natural type human PTH) results from EP0528271A1.

The target in the assay is human PTH receptor on mouse cranial bone-derived osteoblast-like cell strain MC3T3-EI (mouse cell strain (receptor given as 'human PTH receptor')) (UniProt P41593). The experiment in a line: cell-based or functional assay.
UniProt P41593, sequence (P41593 27-591): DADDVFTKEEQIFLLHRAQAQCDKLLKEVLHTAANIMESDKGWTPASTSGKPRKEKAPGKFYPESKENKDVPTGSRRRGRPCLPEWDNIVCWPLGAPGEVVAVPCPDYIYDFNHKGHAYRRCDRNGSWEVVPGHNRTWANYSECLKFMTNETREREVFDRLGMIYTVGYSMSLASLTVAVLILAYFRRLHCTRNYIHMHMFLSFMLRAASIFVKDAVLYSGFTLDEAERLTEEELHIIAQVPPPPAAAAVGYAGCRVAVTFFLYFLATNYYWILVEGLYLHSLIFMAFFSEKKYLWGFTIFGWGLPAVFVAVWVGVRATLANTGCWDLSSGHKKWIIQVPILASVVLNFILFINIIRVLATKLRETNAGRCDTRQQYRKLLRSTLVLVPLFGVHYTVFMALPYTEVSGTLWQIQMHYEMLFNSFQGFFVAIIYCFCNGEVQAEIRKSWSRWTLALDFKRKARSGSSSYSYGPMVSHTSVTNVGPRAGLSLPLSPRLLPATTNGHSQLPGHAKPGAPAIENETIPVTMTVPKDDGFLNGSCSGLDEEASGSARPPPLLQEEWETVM
In the case of Human PTH (1-84) (ligand), the Specific Activity (cAMP production in MC3T3-EI cells) (relative to natural type human PTH) came out at 1. For [Cys³⁵] human PTH (1-84) (ligand), the Specific Activity (cAMP production in MC3T3-EI cells) (relative to natural type human PTH) was 0.6. As for [Leu^8,18] human PTH (1-84) (ligand), the Specific Activity (cAMP production in MC3T3-EI cells) (relative to natural type human PTH) is 0.3. Then [Leu⁸] human PTH (1-84) (ligand), with 1.

For “[Leu⁸] human PTH (second row with this label in the specific activity table; identity uncertain) (ligand)”, the Specific Activity (cAMP production in MC3T3-EI cells) (relative to natural type human PTH) came to 0.2.
